Experimental data reported in article PMC11969024 (2025).

B1: peptide HD2 (from tick evasin EVA4) / CCL18 (biotinylated, synthetic) (parent complex)
chain 1: EEDDYTAYAPLTCYFT
chain 2: AQVGTNKELCCLVYTSWQIPQKFIVDYSETSPQCPKPGVILLTKRGRQICADPNKKWVQKYISDLKLNA

Variants of: B1

| Variant | enrichment |
| --- | --- |
| chain 1 L11M | 2.39 log2 (difference from the parental peptide) |
| chain 1 L11A | 0.458 log2 (difference from the parental peptide) |
| chain 1 T12M | 0.511 log2 (difference from the parental peptide) |
| chain 1 T12R | -2.9 log2 (difference from the parental peptide) |
| chain 1 T12C | -7.25 log2 (difference from the parental peptide) |
| chain 1 T12L | 0.858 log2 (difference from the parental peptide) |
| chain 1 T12P | 1.92 log2 (difference from the parental peptide) |
| chain 1 T12Y | 0.868 log2 (difference from the parental peptide) |
| chain 1 D4W | -1.54 log2 (difference from the parental peptide) |
| chain 1 D4Q | -1.98 log2 (difference from the parental peptide) |
| chain 1 D4G | -2.83 log2 (difference from the parental peptide) |
| chain 1 D4N | -1.99 log2 (difference from the parental peptide) |
| chain 1 D4Y | -1.35 log2 (difference from the parental peptide) |
| chain 1 D4F | -2.31 log2 (difference from the parental peptide) |
| chain 1 D4E | -0.211 log2 (difference from the parental peptide) |
| chain 1 D3G | -0.0296 log2 (difference from the parental peptide) |
| chain 1 D3F | -1.57 log2 (difference from the parental peptide) |
| chain 1 F15E | -2.62 log2 (difference from the parental peptide) |
| chain 1 F15C | -5.58 log2 (difference from the parental peptide) |
| chain 1 F15K | -0.831 log2 (difference from the parental peptide) |
| chain 1 F15M | 0.0729 log2 (difference from the parental peptide) |
| chain 1 F15W | -0.236 log2 (difference from the parental peptide) |
| chain 1 F15D | -4.04 log2 (difference from the parental peptide) |
| chain 1 F15S | -0.989 log2 (difference from the parental peptide) |
| chain 1 F15L | 0.128 log2 (difference from the parental peptide) |

| Variant | enrichment |
| --- | --- |
| chain 1 Y14K | -6.36 log2 (difference from the parental peptide) |
| chain 1 Y14N | -4.78 log2 (difference from the parental peptide) |
| chain 1 Y14V | -1.51 log2 (difference from the parental peptide) |
| chain 1 Y14D | -5.4 log2 (difference from the parental peptide) |
| chain 1 Y14C | -8.51 log2 (difference from the parental peptide) |
| chain 1 Y14Q | -3.29 log2 (difference from the parental peptide) |
| chain 1 C13F | -5.66 log2 (difference from the parental peptide) |
| chain 1 C13Q | -9.57 log2 (difference from the parental peptide) |
| chain 1 C13T | -9.42 log2 (difference from the parental peptide) |
| chain 1 Y8S | -2.05 log2 (difference from the parental peptide) |
| chain 1 Y8H | -6.18 log2 (difference from the parental peptide) |
| chain 1 Y8L | -6.1 log2 (difference from the parental peptide) |
| chain 1 A7K | 1.7 log2 (difference from the parental peptide) |
| chain 1 A7D | 1.19 log2 (difference from the parental peptide) |
| chain 1 A7L | 0.189 log2 (difference from the parental peptide) |
| chain 1 A7R | 1.21 log2 (difference from the parental peptide) |
| chain 1 A7H | -0.736 log2 (difference from the parental peptide) |
| chain 1 T16R | -1.37 log2 (difference from the parental peptide) |
| chain 1 E1N | -0.496 log2 (difference from the parental peptide) |
| chain 1 E1M | -0.0267 log2 (difference from the parental peptide) |
| chain 1 E1K | -3.68 log2 (difference from the parental peptide) |
| chain 1 E1S | -0.81 log2 (difference from the parental peptide) |
| chain 1 Y5R | -6.25 log2 (difference from the parental peptide) |
| chain 1 Y5A | -4.1 log2 (difference from the parental peptide) |
| chain 1 Y5N | -4 log2 (difference from the parental peptide) |

| Variant | enrichment |
| --- | --- |
| chain 1 Y5M | -0.412 log2 (difference from the parental peptide) |
| chain 1 Y5W | 1.32 log2 (difference from the parental peptide) |
| chain 1 A9L | -7.81 log2 (difference from the parental peptide) |
| chain 1 A9C | -10.3 log2 (difference from the parental peptide) |
| chain 1 A9E | -0.109 log2 (difference from the parental peptide) |
| chain 1 A9P | -6 log2 (difference from the parental peptide) |
| chain 1 A9Y | -7.05 log2 (difference from the parental peptide) |
| chain 1 A9I | -10.2 log2 (difference from the parental peptide) |
| chain 1 A9K | -2.18 log2 (difference from the parental peptide) |
| chain 1 A9Q | -0.732 log2 (difference from the parental peptide) |
| chain 1 A9H | -4.5 log2 (difference from the parental peptide) |
| chain 1 T6M | 0.172 log2 (difference from the parental peptide) |
| chain 1 T6K | -0.184 log2 (difference from the parental peptide) |
| chain 1 T6Y | -0.339 log2 (difference from the parental peptide) |
| chain 1 T6R | 0.592 log2 (difference from the parental peptide) |
| chain 1 T6A | 1.9 log2 (difference from the parental peptide) |
| chain 1 T6N | 1.41 log2 (difference from the parental peptide) |
| chain 1 E2H | -2.48 log2 (difference from the parental peptide) |
| chain 1 E2M | -1.79 log2 (difference from the parental peptide) |
| chain 1 E2R | -3.87 log2 (difference from the parental peptide) |
| chain 1 E2T | -2.6 log2 (difference from the parental peptide) |
| chain 1 P10A | -7.91 log2 (difference from the parental peptide) |
| chain 1 P10G | -8.83 log2 (difference from the parental peptide) |
| chain 1 P10Q | -5.59 log2 (difference from the parental peptide) |
| chain 1 P10N | -8.22 log2 (difference from the parental peptide) |
